Reference: article PMC9242648

Experiments:
[1] = biological target: human essential light chain (MYL3) (UniProt P08590); experiment: Coomassie SDS-PAGE gel-based light chain loading assay; details: read off a plot
[2] = biological target: human regulatory light chain (MYL2) (UniProt P10916); experiment: as above; details: read off a plot

| ratio to parent [1] | ratio to parent [2] | Substance |
| --- | --- | --- |
| 1.1 | 1.3 | human β-cardiac myosin 2-hep heavy chain, wild type D778V |
| 0.99 | 1.2 | human β-cardiac myosin 2-hep heavy chain, wild type L781P |
